Article doi:10.1101/2023.08.04.552031, “Oligomerization and positive feedback on membrane recruitment encode dynamically stable PAR-3 asymmetries in the C. elegans zygote” (bioRxiv, 2023)

How the values were obtained:
[1] = molecular target: the molecule itself; experiment: particle intensities calibrated to single GFP molecules (near-TIRF imaging of living embryos); anterior membrane, where PAR-3 density is higher; homozygous par-1 mutant embryos, late maintenance phase; streaming mode, 100% laser power, 50 msec exposure; features binned by intensity against the mean single molecule intensity after photobleaching; size distribution fitted to An = A1 α^n−1
[2] = molecular target: the molecule itself; experiment: particle intensities calibrated to single GFP molecules (near-TIRF imaging of living embryos); posterior membrane, where PAR-3 density is lower; homozygous par-1 mutant embryos, late maintenance phase; streaming mode, 100% laser power, 50 msec exposure; features binned by intensity against the mean single molecule intensity after photobleaching; size distribution fitted to An = A1 α^n−1
[3] = molecular target: the molecule itself; experiment: single molecule tracking and release curves (near-TIRF imaging of living embryos); single PAR-3::GFP molecules, 100% laser power, 50 msec exposures, duty ratio of exposure varied; release curves fitted to exponentials from tmin = 1 sec; linear fit kops = kdep + dr * kpb, the intercept is kdep (depolymerization of a subunit from membrane-bound oligomers); also in par-6(RNAi) and cdc-42(RNAi) embryos, no significant …

B1: PAR-3::GFP, endogenously tagged (C-terminal fusion of GFP to PAR-3 from the endogenous locus) (natural protein, C. elegans, UniProt Q17353 1-1379, looked up)
chain: MSASSTSSSSTSCPEGGEPSGSCKSSDEGESTLKKRMQQYGIASGYANSSISTLDRSQYQSLPLNGTRRVTVQFGRMKIVVPWKESDQTVGQLADAALLRYKKARGMANEDRIHVHRLECASDGGILDMDDVLEEVFDLNYDQILAITDEANGGSTTPTYSQIQKQQHHYAQPLPYARKFDGGPSTPIASAFGSVTVNHQAHRAASPYNVGFARSNSRDFAPQPTHSKERRDSVVEVSSFDQIPQSGLRVSTPKPSRQSEDVIDGKPMNQPILRSSLRTEASGSRTEEATPVKQSRVTLSPEVEKKLAEQDERKSERRKHYDKNPGRFARGSDRKSRITDALLDARDRIADQLESQNPAEETKSQMIRVKIDQGPMPGTSLVTFPPIPEKSENEKQLGIEVNAVFDESSELPGTSEPTKLSSVQIMKIEDGGRIAKDGRIRVGDCIVAIDGKPVDQMSIIRVRASISDLAAVTSRPVTLIINRSLESFLEQESSAKPIQSALQQANTQYIGHTTVVELIKSSNGFGFTVTGRETAKGERLFYIGTVKPYGVALGHLKSGDRLLEINGTPTGQWTQSEIVEKLKETMVGEKIKFLVSRVSQSAIMSTSASSENKENEETLKVVEEEKIPQKLPLPALMTPPVPKDTPALSPSGASRFEIVIPFINGSSSAGLGVSLKARVSKKSNGSKVDCGIFIKNVMHGGAAFKEGGLRVDDRIVGVEDIDLEPLDNREAQAALAKKLKEVGMISSNVRLTISRYNECNPGQISRDLSRITVDASSPSPSSRMSSHTAPDSLLPSPATRGTSSSGADSSHSRQSSASSAVPAVPARLTERDSIVSDGTSRNDESELPDSADPFNREGLGRKSLSEKRGMGAAADPQHIKLFQDIKHQRQNSAPTSSTQKRSKSQPRSSSQRNYRSPMKLVDLPTTAAASASTNSQNLDDSDMLNRRSQSMESINRPVESILRGTGQIPTGSSSKVQFMQAASPDQHPFPPGAALLRLKNEESRSRDKSRRKSMGNPFSAMRNFFGFGSKSRDASPEKTPTESVQLRSVERPKSIIDERNNGSSERAPPPLPPHQSQRRGSGGNVFVDYGEPYGLIPQYPHNTTSGYESYADSELYDRYAAHRYHPRGGPIIDEDEYIYRQQSTSGNSPINTSSYVNYGLPASNAYHVGSRIPPQTSSGSISKTSGAMRRVYPAEYDEDVAYHQQIPQQSTRYQQGSGSGRGNADYHHMFNSWFAYTGGGAVGAAPVIKSSYGSSPVRIAAASAIERGESFVVEPVSGSSASATDRRGRSTSSGAVASGSSSTGFQYAAKEKYADARSGKFNGGSTRLFIPRHGGGLSAAAFATNFGGEAYETRGGGAGGSPSQYRRRDQGPPHRFPQY
notes: PAR-3, C. elegans, oligomeric scaffold protein; expressed from the endogenous locus; Oligomers of variable size (exponential size distribution) at the cell membrane; also called endogenously-tagged PAR-3::GFP; par-1; source: expressed from the endogenous locus in C. elegans, observed in living one-cell embryos; not shown: GFP, C-terminal, kept
[1]
  stoichiometry N: 3.48 ± 0.65 subunits (mean oligomer size)
[2]
  stoichiometry N: 1.65 ± 0.16 subunits (mean oligomer size)

B2: PAR-3::GFP, transgenic (natural protein, C. elegans, UniProt Q17353 1-1379, looked up)
chain: B1 chain
notes: PAR-3, C. elegans; transgenically expressed; The oligomers from which single labelled molecules depolymerise probably also hold unlabelled PAR-3 of the embryo; also called transgenic PAR-3::GFP; full length PAR-3::GFP
[3]
  koff: 0.08 s⁻¹
